Each binder was assayed against T1, human MUC1 SEA domain protein (human, UniProt P15941 1036-1155) (assay: SPR, antibody captured, huMUC1 SEA analyte).
T1 construct: also called HuMUC1-SEA; huMUC1 SEA
T1 sequence: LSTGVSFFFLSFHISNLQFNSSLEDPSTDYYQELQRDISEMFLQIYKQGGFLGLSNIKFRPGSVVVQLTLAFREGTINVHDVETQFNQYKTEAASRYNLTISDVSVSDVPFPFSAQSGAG

Row | Binder | Kd
1 | huBG138P-Hz4 (antibody, V domains shown, humanized; constant regions not restated) VH: QVQLVQSGAEVKKPGASVKVSCKASGYTFTTYTMHWVRQAPGQGLEWMGYINPGSDYTHYNQKFKDRVTITADKSASTAYMELSSLRSEDTAVYYCARQGNYAAYYFDYWGQGTLVTVSS VL: DIQMTQSPSSLSASVGDRVTITCRASGNIHNFLVWYQQKPGKSPKLLIYNAKTLTSGVPSRFSGSGSGTQYTLTISSLQPEDVATYYCQNFWNVPFTFGQGTKLEIK | 0.223 nM
2 | huBG138P-Hz1 (antibody, V domains shown, humanized; constant regions not restated (IgG1/Ckappa vector used for the first round)) VH: QVQLVQSGAEVKKPGASVKVSCKASGYTFTTYTMHWVRQAPGQRLEWMGYINPGSDYTHYNQKFKDRVTITADTSASTAYMELSSLRSEDTAVYYCARQGNYAAYYFDYWGQGTLVTVSS VL: DIQMTQSPSSLSASVGDRVTITCRASGNIHNFLVWYQQKPGKVPKLLIYNAKTLTSGVPSRFSGSGSGTDYTLTISSLQPEDVATYYCQNFWNVPFTFGQGTKLEIK | 0.241 nM
3 | huBG138P-Hz3 (antibody, V domains shown, humanized; constant regions not restated) VH: QVQLVQSGAEVKKPGASVKVSCKASGYTFTTYTMHWVRQAPGQGLEWMGYINPGSDYTHYNQKFKDRVTITADKSASTAYMELSSLRSEDTAVYYCARQGNYAAYYFDYWGQGTLVTVSS VL: DIQMTQSPSSLSASVGDRVTITCRASGNIHNFLVWYQQKPGKVPKLLIYNAKTLTSGVPSRFSGSGSGTDYTLTISSLQPEDVATYYCQNFWNVPFTFGQGTKLEIK | 0.242 nM

Each binder was assayed against T1, human MUC1 SEA domain protein (assay: SPR (Biacore 2000), antibody captured, huMUC1 SEA analyte, 1:1 binding).

Row | Binder | Kd
4 | BG138P-Bz0 (antibody, human IgG1, V domains shown, human IgG1/Ckappa) VH: QVQLVQSGAEVKKPGASVKVSCKASGYTFTTYTMHWIKQAPGQGLEWIGYINPGSDYTHYNQKFKDKATLTADKSASTAYMELYSLRSEDTAVYYCARQGNYAAYYFDYWGQGTLVTVSS VL: DIQMTQSPSSLSASVGDRVTITCRASGNIHNFLVWYQQKPGKSPKLLVYNAKTLTDGVPSRFSGSGSGTQYSLTISSLQPEDVATYYCQNFWNVPFTFGSGTKLEIK | 0.464 nM
5 | BG138P-Hz0 (antibody, human IgG1, V domains shown, human IgG1/Ckappa) VH: QVQLVQSGAEVKKPGASVKVSCKASGYTFTTYTMHWVRQAPGQRLEWMGYINPGSDYTHYNQKFKDRVTITRDTSASTAYMELSSLRSEDTAVYYCARQGNYAAYYFDYWGQGTLVTVSS VL: DIQMTQSPSSLSASVGDRVTITCRASGNIHNFLVWYQQKPGKVPKLLIYNAKTLTDGVPSRFSGSGSGTDFTLTISSLQPEDVATYYCQNFWNVPFTFGQGTKLEIK | 0.527 nM
6 | BG138P-Bz15 (antibody, human IgG1, V domains shown, human IgG1/Ckappa) VH: QVQLVQSGAEVKKPGASVKVSCKASGYTFTTYTMHWIKQAPGQGLEWIGYINPGSDYTHYNQKFKDKATLTADKSASTAYMELYSLRSEDTAVYYCARQGNYAAYYFDYWGQGTLVTVSS VL: DIQMTQSPSSLSASVGDRVTITCRASGNIHNFLVWYQQKPGKSPKLLVYNAKTLTDGVPSRFSGSGSGTQYTLTISSLQPEDVATYYCQNFWNVPFTFGSGTKLEIK | 0.493 nM
7 | BG138P-Bz13 (antibody, human IgG1, V domains shown, human IgG1/Ckappa) VH: QVQLVQSGAEVKKPGASVKVSCKASGYTFTTYTMHWIKQAPGQGLEWIGYINPGSDYTHYNQKFKDKATLTADKSASTAYMELYSLRSEDTAVYYCARQGNYAAYYFDYWGQGTLVTVSS VL: DIQMTQSPSSLSASVGDRVTITCRASGNIHNFLVWYQQKPGKSPKLLVYNAKTLTDGVPSRFSGSGSGTDYSLTISSLQPEDVATYYCQNFWNVPFTFGSGTKLEIK | 0.453 nM
8 | BG138P-Bz8 (antibody, human IgG1, V domains shown, human IgG1/Ckappa) VH: QVQLVQSGAEVKKPGASVKVSCKASGYTFTTYTMHWIKQAPGQGLEWIGYINPGSDYTHYNQKFKDKATLTRDKSASTAYMELYSLRSEDTAVYYCARQGNYAAYYFDYWGQGTLVTVSS VL: DIQMTQSPSSLSASVGDRVTITCRASGNIHNFLVWYQQKPGKSPKLLVYNAKTLTDGVPSRFSGSGSGTQYSLTISSLQPEDVATYYCQNFWNVPFTFGSGTKLEIK | 0.608 nM
9 | BG138P-Bz11 (antibody, human IgG1, V domains shown, human IgG1/Ckappa) VH: QVQLVQSGAEVKKPGASVKVSCKASGYTFTTYTMHWIKQAPGQGLEWIGYINPGSDYTHYNQKFKDKATLTADKSASTAYMELYSLRSEDTAVYYCARQGNYAAYYFDYWGQGTLVTVSS VL: DIQMTQSPSSLSASVGDRVTITCRASGNIHNFLVWYQQKPGKVPKLLVYNAKTLTDGVPSRFSGSGSGTQYSLTISSLQPEDVATYYCQNFWNVPFTFGSGTKLEIK | 0.513 nM
10 | BG138P-Bz7 (antibody, human IgG1, V domains shown, human IgG1/Ckappa) VH: QVQLVQSGAEVKKPGASVKVSCKASGYTFTTYTMHWIKQAPGQGLEWIGYINPGSDYTHYNQKFKDKATITADKSASTAYMELYSLRSEDTAVYYCARQGNYAAYYFDYWGQGTLVTVSS VL: DIQMTQSPSSLSASVGDRVTITCRASGNIHNFLVWYQQKPGKSPKLLVYNAKTLTDGVPSRFSGSGSGTQYSLTISSLQPEDVATYYCQNFWNVPFTFGSGTKLEIK | 0.407 nM
11 | BG138P-Bz2 (antibody, human IgG1, V domains shown, human IgG1/Ckappa) VH: QVQLVQSGAEVKKPGASVKVSCKASGYTFTTYTMHWIRQAPGQGLEWIGYINPGSDYTHYNQKFKDKATLTADKSASTAYMELYSLRSEDTAVYYCARQGNYAAYYFDYWGQGTLVTVSS VL: DIQMTQSPSSLSASVGDRVTITCRASGNIHNFLVWYQQKPGKSPKLLVYNAKTLTDGVPSRFSGSGSGTQYSLTISSLQPEDVATYYCQNFWNVPFTFGSGTKLEIK | 0.453 nM
12 | BG138P-Bz4 (antibody, human IgG1, V domains shown, human IgG1/Ckappa) VH: QVQLVQSGAEVKKPGASVKVSCKASGYTFTTYTMHWIKQAPGQGLEWMGYINPGSDYTHYNQKFKDKATLTADKSASTAYMELYSLRSEDTAVYYCARQGNYAAYYFDYWGQGTLVTVSS VL: DIQMTQSPSSLSASVGDRVTITCRASGNIHNFLVWYQQKPGKSPKLLVYNAKTLTDGVPSRFSGSGSGTQYSLTISSLQPEDVATYYCQNFWNVPFTFGSGTKLEIK | 0.488 nM
13 | BG138P-Bz5 (antibody, human IgG1, V domains shown, human IgG1/Ckappa) VH: QVQLVQSGAEVKKPGASVKVSCKASGYTFTTYTMHWIKQAPGQGLEWIGYINPGSDYTHYNQKFKDRATLTADKSASTAYMELYSLRSEDTAVYYCARQGNYAAYYFDYWGQGTLVTVSS VL: DIQMTQSPSSLSASVGDRVTITCRASGNIHNFLVWYQQKPGKSPKLLVYNAKTLTDGVPSRFSGSGSGTQYSLTISSLQPEDVATYYCQNFWNVPFTFGSGTKLEIK | 0.475 nM
14 | BG138P-Bz3 (antibody, human IgG1, V domains shown, human IgG1/Ckappa) VH: QVQLVQSGAEVKKPGASVKVSCKASGYTFTTYTMHWIKQAPGQRLEWIGYINPGSDYTHYNQKFKDKATLTADKSASTAYMELYSLRSEDTAVYYCARQGNYAAYYFDYWGQGTLVTVSS VL: DIQMTQSPSSLSASVGDRVTITCRASGNIHNFLVWYQQKPGKSPKLLVYNAKTLTDGVPSRFSGSGSGTQYSLTISSLQPEDVATYYCQNFWNVPFTFGSGTKLEIK | 0.532 nM
15 | BG138P-Bz12 (antibody, human IgG1, V domains shown, human IgG1/Ckappa) VH: QVQLVQSGAEVKKPGASVKVSCKASGYTFTTYTMHWIKQAPGQGLEWIGYINPGSDYTHYNQKFKDKATLTADKSASTAYMELYSLRSEDTAVYYCARQGNYAAYYFDYWGQGTLVTVSS VL: DIQMTQSPSSLSASVGDRVTITCRASGNIHNFLVWYQQKPGKSPKLLIYNAKTLTDGVPSRFSGSGSGTQYSLTISSLQPEDVATYYCQNFWNVPFTFGSGTKLEIK | 0.501 nM
16 | BG138P-Bz1 (antibody, human IgG1, V domains shown, human IgG1/Ckappa) VH: QVQLVQSGAEVKKPGASVKVSCKASGYTFTTYTMHWVKQAPGQGLEWIGYINPGSDYTHYNQKFKDKATLTADKSASTAYMELYSLRSEDTAVYYCARQGNYAAYYFDYWGQGTLVTVSS VL: DIQMTQSPSSLSASVGDRVTITCRASGNIHNFLVWYQQKPGKSPKLLVYNAKTLTDGVPSRFSGSGSGTQYSLTISSLQPEDVATYYCQNFWNVPFTFGSGTKLEIK | 0.503 nM
17 | BG138P-Bz16 (antibody, human IgG1, V domains shown, human IgG1/Ckappa) VH: QVQLVQSGAEVKKPGASVKVSCKASGYTFTTYTMHWIKQAPGQGLEWIGYINPGSDYTHYNQKFKDKATLTADKSASTAYMELYSLRSEDTAVYYCARQGNYAAYYFDYWGQGTLVTVSS VL: DIQMTQSPSSLSASVGDRVTITCRASGNIHNFLVWYQQKPGKSPKLLVYNAKTLTDGVPSRFSGSGSGTQYSLTISSLQPEDVATYYCQNFWNVPFTFGQGTKLEIK | 0.466 nM
18 | BG138P-Bz6 (antibody, human IgG1, V domains shown, human IgG1/Ckappa) VH: QVQLVQSGAEVKKPGASVKVSCKASGYTFTTYTMHWIKQAPGQGLEWIGYINPGSDYTHYNQKFKDKVTLTADKSASTAYMELYSLRSEDTAVYYCARQGNYAAYYFDYWGQGTLVTVSS VL: DIQMTQSPSSLSASVGDRVTITCRASGNIHNFLVWYQQKPGKSPKLLVYNAKTLTDGVPSRFSGSGSGTQYSLTISSLQPEDVATYYCQNFWNVPFTFGSGTKLEIK | 0.518 nM
19 | BG138P-Bz9 (antibody, human IgG1, V domains shown, human IgG1/Ckappa) VH: QVQLVQSGAEVKKPGASVKVSCKASGYTFTTYTMHWIKQAPGQGLEWIGYINPGSDYTHYNQKFKDKATLTADTSASTAYMELYSLRSEDTAVYYCARQGNYAAYYFDYWGQGTLVTVSS VL: DIQMTQSPSSLSASVGDRVTITCRASGNIHNFLVWYQQKPGKSPKLLVYNAKTLTDGVPSRFSGSGSGTQYSLTISSLQPEDVATYYCQNFWNVPFTFGSGTKLEIK | 0.476 nM
20 | BG138P-Bz10 (antibody, human IgG1, V domains shown, human IgG1/Ckappa) VH: QVQLVQSGAEVKKPGASVKVSCKASGYTFTTYTMHWIKQAPGQGLEWIGYINPGSDYTHYNQKFKDKATLTADKSASTAYMELSSLRSEDTAVYYCARQGNYAAYYFDYWGQGTLVTVSS VL: DIQMTQSPSSLSASVGDRVTITCRASGNIHNFLVWYQQKPGKSPKLLVYNAKTLTDGVPSRFSGSGSGTQYSLTISSLQPEDVATYYCQNFWNVPFTFGSGTKLEIK | 0.448 nM
21 | BG138P-Bz14 (antibody, human IgG1, V domains shown, human IgG1/Ckappa) VH: QVQLVQSGAEVKKPGASVKVSCKASGYTFTTYTMHWIKQAPGQGLEWIGYINPGSDYTHYNQKFKDKATLTADKSASTAYMELYSLRSEDTAVYYCARQGNYAAYYFDYWGQGTLVTVSS VL: DIQMTQSPSSLSASVGDRVTITCRASGNIHNFLVWYQQKPGKSPKLLVYNAKTLTDGVPSRFSGSGSGTQFSLTISSLQPEDVATYYCQNFWNVPFTFGSGTKLEIK | 0.608 nM

Source: US20250382384A1 (BEONE MEDICINES I, published 2025)
